Measured values: the DeepSol protein solubility set

experiment: soluble on expression in E. coli; label from the status in PepcDB or PDB records

Sequence	soluble on expression in E. coli
MIDFSNFYQLIAKSPLSHWLETLPAQVAAWQRDALHGKFREWERAVEFLPELTPWRLDLLHSVTAESETPLSEGHQRRIENLLKNLMPWRKGPYSLYGINIDTEWRSDWKWERVLPHLSDLTGRTILDVGCGSGYHMWRMIGAGAHLAVGIDPTQLFLCQFEAVRKLLGNDQRAHLLPLGIEQLPALEAFDTVFSMGVLYHRRSPLDHLWQLKDQLAPGGELVLETLVVEGDENTVLVPGDRYAQMRNVYFIPSAAALKMWLEKCGFIDVRIVDACVTSTEEQRRTEWMTTESLADFLDPQDQRKTVEGYPAPLRAVIIATKPETQQSLAKKAR	not soluble
MIDKSGYRANVAIVLLNKQNRVFWGQRRNRTSWQFPQGGVATGETPLQAMYRELHEEIGLRPQDVEVIASTRDWYKYDIPDSLVRTKEPICIGQKQKWFLLKLKSPESYIDLDANDSPEFDNWRWVSYWYPINHVVYFKQEVYRKALTYFKEYIA	not soluble
MIDNVADGKIEADSKQAVNGGQLRDYTEQQMKIVLDDAKKYTDEQVKDRVSNGVNEAKSYTDMKFETLSYVVEDVRKAARQAVAMGLAVSNLRYYDIPGSLSLSFGTGIWRNQSAFAIGVGYTSEDGNIRSNLSITSADSHWDIGAGLRIKLN	not soluble
MIDQFMSMSELIDHTEEHKDWQILYNERVAKSLITAVHGGAIERGTSEIAQLISEIGGYSFYTFKGIRKNKNHELHVTSKHFDEPILNELVPTHEVVVSLHGCMGNDVAVYIGGKDLELSYEITQQLQKIGIVVKPAPAHIAGMQTENFVNKGKRDAGVQLELTVALRKQCFKNNKYNLHDRENRENWSQLMFSFSTAIANALKILNDLEHHHHHH	not soluble
MIDREQIVRIVSDYLSTGETFLVEVAIHPGNRILVELDSAQGVCIDECVALSRHIESQVDRDIEDYELEVGSTGLTSPLKVMRQWENCIDSELSVLLTNGMKETGRLITVAPEAIKLEVVRMVKPEGAKRKKPETQELTIVMADIKQAVRII	not soluble
MIDVKSIILIVLDGLGDRPGEILGYRTPLQAAYHPNMNRMASLGMTGLMHPISPGIRSGSDTSHMSLLGYDPRVYYQGRGPFEALGLHMDMKPGDLAFRANFATNRDGKIIDRRAGRINAGNDQLASAISIDIGNYKFRVKSGVEHRAALVVSGPNLSDKISDSDPHSEGKPPEPIRPLDPSADSTAKIMNEYLKRIREILRDHPVNVEREKNGQIPGNELLIRSAGKVPDIPSFQEKNGITGACVVGSPWLKGLCRLLGMAVIDVPGAAGTINSNYTGKIKTAIDASKRYDFVLVNIKATDVAGHDGDYELKRRVIEDIDIAMEPLLGQSDRIVVAITGDHSTPCSVKDHSGDPVPIVFYTDGIYSDDVKLFDEVSAMKGALRITTQDVLNILMEMAGRAEKFGSLEHHHHHH	soluble
MIEDYALIGDMQIAALVCQDGTVDWLCLPRFDSHAVFAGLLGTEEHGFWRLGPAHASDAEPPRASRRTYRGDSLILESEWDTPRGTVRVTDFMPPRDGAPQLIRIVEGVTGRVPMRSALEHHHHHH	soluble
MIEINDVNKKYQQTTVLNEINERIPSGGITSIIGPNGAGKSTLLSIMSRLLAADSGNVLFNGLDVAKTSGDKLATILSVLRQENHFTSRLTVSDLVGFGRYPYSRGRLNKNDRQHIDAAMEFLNLMPLKDRYLDELSGGQRQRAYVAMVLCQDTSYILLDEPLNNLDMKHCVAMMKQLRRAADELHKTIILVIHDINFASAYSDHIIAMKNGEVIYRGAPAEIMQPSILEEIFDIKISIEKVQGQHIAVYYR	not soluble
MIEITFLGGGGGRFVTITQVRATGGFFIKASKNIYVDPGPGALVRMWRYKIDPRKVDVLFISHRHTDHCNDAEVLVEGMTYGVTKKRGTLIGSKSVVHGDENHTPALSKYHLDALEEVHAPNPGDRFKIGEDEMIITPSLHSDPTTIGFRLKTSYGDISYIPDTEYFEELVKWHDGARVIIAAVTRPRDMRIPFHLSSEDAVYLLKSMKQKPEVFIMTHAGMKMHFAGPYKEAQFIQNLTGVKTYVAKEGFKVSIGKEISVKTLRPARFVLEHHHHHH	soluble
MIEQFNFDIRLIFAILNGKVSAAINRKLYRNFRQNGLEISPEQWTVLIFLWEKDGVTQQELCNATFKDKPSMTRLIDNMERQHLVVRISDKKDRRTNLIHLTKDGKELEEKARIIAGQTLKEALHGITLEELSIGQEVLKKVFYNTKD	not soluble
MIETEKKEERVLLIGVELQGMDSFDLSMEELASLAKTAGAVVVDSYRQKREKYDSKTFVGSGKLEEIALMVDAEEITTVIVNNRLTPRQNVNLEEVLGVKVIDRMQLILDIFAMRARSHEGKLQVHLAQLKYLLPRLVGQGIMLSRQAGGIGSRGPGESQLELNRRSVRNQITDIERQLKVVEKNRATVREKRLESSTFKIGLIGYTNAGKSTIMNILTSKTQYEADELFATLDATTKSIHLGGNLQVTLTDTVGFIQDLPTELVSSFKSTLEESKHVDLLVHVIDASNPYHEEHEKTVLSIMKDLDMEDIPHLTLYNKADLVEDFTPTQTPYTLISAKSEDSRENLQALLLDKIKEIFEAFTLRVPFSKSYKIHDLESVAILEERDYQEDGEVITGYISEKNKWRLEEFYDLEHHHHHH	not soluble
MIFKQNQNYWAVFDANKETLIVQTCSGLGLTAIDHLYPPHILPLDTDNETLGTTVLQALANSRTFVYDSPEDQDFFDTEKIRQRYEDWVAKLCGNLGYKTRRALFKNMMSVDIWLHNGCLKISPSRHVKLEAWNAIDADDVILSLDNSPEEIGAGLKLALSHCR	not soluble
MIFKSNFTTRAGLAALALSFAAAGAPSVASAQQAGGKPPQGWFKVCTKQEDNDVCIVQNLLTANNGQLVTAVGLITVSGKVNRKVMQVSVPSARMIPPGVQMQIDGGKGVKLDYAICMPDKCVAEAPLSDALIAQLKKGNEVVFTSVNFQRAPNPIKMSLEGFTGVFDGEPIEQSQLEERQRLLQEEMQKKAEDARKKLEEAQKAAKQQ	not soluble
MIFMRKVVAEVSIIPLGKGASVSKYVKKAIEVFKKYDLKVETNAMGTVLEGDLDEILKAFKEAHSTVLNDVDRVVSSLKIDERKDKENTIERKLKAIGEL	soluble
MIFRSFFTHRIASMETKRLKLIPACLERAEEAHQAVVRSQKTLEVYLPWVPHVLTLEAMIEGTEKAIANFENFEEELRYYIIEK	not soluble
MIFVLGGTSDSLLISDWLTETKRPFILSVATDYGETLAKQHAEKVFCGRLAKEAMLAKWQLEQIKLVIDATHPFATIVSETAMEACKEAGIPYIRFERTSEQTDNTYLVDDINEACKVAAKLGQRIFLTTGSKNLPEFVAGLKQQHIIARILPVSDVIRSAEELGLVADQIIGMKGPFTKEANRTQLEMTQADVLITKESGKQGGFQEKLTAAAELNIPVIVIRRKKLNYPIEINHLTELPEILTQLEV	not soluble
MIGKNIKSLRKTHDLTQLEFARIVGISRNSLSRYENGTSSVSTELIDIICQKFNVSYVDIVGEDKMLNPVEDYELTLKIEIVKERGANLLSRLYRYQDSQGISIDDESNPWILMSDDLSDLIHTNIYLVETFDEIERYSGYLDGIERMLEISEKRMVA	soluble
MIGNVKMEYASASEEYLTESEMDEYLDDLRSKIPSFIVELLKNNLKNRKLTRPQLDKIVGRVSDLYFGKKPEDKKAAELTNKINDLSQKLDALMKVATISSATKVSDDIKKELNYLDDEKIEVPEISKAVEVPEIIEEPEISIEPVEEPVVEPVKIIEKQTVEPIIEFKEEPKIEKVVSKVPLEIEEGNNMRPELTPAVETTARLQELPEDTLSTMLVFKWLEFLISRVGTGNLIDVLDYYHNLGWVSGKAISKLMKVSKNMKYFHEDIDWKANECMAPEDHVVSLLYIEKLAGRPIAVEELEGMEREINRIKKWAEELQKM	not soluble
MIGTAVKELLLEKQETFLVPAENVANVMCLNPLSHAALVLSQVRYSKIPVLDKGDRFVGLIGLTDVVDKMFDLTSVDFEKLNEFTVADVMEVNVPVIGESWDLEEVLHLLVDASFLPVVDDNQRFKGIITRKEILKAVNHMAHELEKHHLVLPKSEEEMKVI	not soluble
MIGYEFFVSEKLENCKYKYIKAINDYIKQEKSHIIGIDLGKYHYLTASNIDRSFVFVDKHNTLFHLFRKYERRIANKQYDNSEAYSKLKTGLKSHINQVVNEMLEQTSNRFQTVFALDDHGSSHLSFPSLVFDLTYFAIKQRKNESDEILIVDESFTSIECPICHDRNQYNRTNKNKFKCTKCGFIHQNNDIVAASNIAKKGQLLNSLEHHHHHH	not soluble
MIHGIGVDLIEIDRIQALYSKQPKLVERILTKNEQHKFNNFTHEQRKIEFLAGRFATKEAFSKALGTGLGKHVAFNDIDCYNDELGKPKIDYEGFIVHVSISHTEHYAMSQVVLEKSAF	not soluble
MIIGSRRARSDKYVKIAHLMQCTQPWFNHFLPEPESPQASTYKMLKPVSWLPRPVKSVSFYPSRRTAVARNGHNLRLQWRGPLPELHWHSRSLQHTQH	not soluble
MIIGYARVSSLDQNLERQLENLKTFGAEKIFTEKQSGKSIENRPILQKALNFVRMGDRFIVESIDRLGRNYNEVIHTVNYLKDKEVQLMITSLPMMNEVIGNPLLDKFMKDLIIQILAMVSEQERNESKRRQAQGIQVAKEKGVYKGRPLLYSPNAKDPQKRVIYHRVVEMLEEGQAISKIAKEVNITRQTVYRIKHDNGLSSHHHHHH	soluble
MIIKGRAHKFGDDVDTDAIIPGPYLRTTDPYELASHCMAGIDENFPKKVKEGDVIVAGENFGCGSSREQAVIAIKYCGIKAVIAKSFARIFYRNAINVGLIPIIANTDEIKDGDIVEIDLDKEEIVITNKNKTIKCETPKGLEREILAAGGLVNYLKKRKLIQSKKGVKT	soluble
MIILMSKPLSEKKTSNNISDLIYGLLKEDIFNFVLKPGQRFTETDLSERYEASRTPIRQALYRLEQEGFVHVHFRSGWEIRPLEFKYYQELFDLRMILEKEAVKRLCELEHPEQLPALIELKKMWLIAPVDYLTDTKTLVLQSEDFHCALVRAAGNQQIAKIHQEASEKIRIVLSLGAMKEFDIAHAYQDHGAILQCILNKDAEQAIHLAEHHVLESIHEVKNITLQMISAIH	not soluble
MIISAEGDVSIHHCFEAMLISLQEDYRQNTLRQLSRDDIKAGINYVKHYGKYKERTVRVLITALEAPQLYTACFSSNHGIKELAYQLEALGENRTRITYSYDYHPLDIFQKANQFIVGKLFKKSLERQSQAQLAALIQYAKQLQQPSSL	not soluble
MIITKNISLPELYQEWLDLKIMPSNRSDVTKKKYLSRKVTLEKLFGDKPISQIRPSEYQRIMNNYGQRVSRNFLGRLNTGVKQSLQMAIADKVMIEDFTQNVELFSTVKLEHHHHHH	soluble
MIKIDDEAITFVVQGPVQASASRQQIAGITEQCLNSIRRFFPKSTIILSTWKGQPLDGLDYDQVLELDDPGANTVFYDGQPIKLNNNRQMYSTHMGLKAVKTPYAVKLRTDNLLTGRQFVELYERYADLPRAQNYQFLTQRVLTSSTFFISSHYGHPVHFHKSDLFDFGLTQDLLTIWSDRWIPELHFTLKPGYKARHPATEQVLCLNWISALLDEEHHIESKTCDHAGLGENFWPQFMANNLLMDCPENIGLDVTERFYKRGNLALEYDLKDWLHLNQITSIPYDKKRLYRYYRNQIGRILKKIHSFN	not soluble
